By Tm is commonly meant the temperature at which the thermal transition is half complete.

The source of these data is FireProtDB (doi:10.1021/bi990893b).

The chains are these.
B1: Cytochrome b5, P00171 (parent)
chain: MAEESSKAVKYYTLEEIQKHNNSKSTWLILHYKVYDLTKFLEEHPGGEEVLREQAGGDATENFEDVGHSTDARELSKTFIIGELHPDDRSKITKPSESIITTIDSNPSWWTNWLIPAISALFVALIYHLYTSEN

Variants of B1 are the subject of this series. The settings on record: Bos taurus, pH 7, Thermal, Absorbance, Sodium phosphate 100 mM, structure 1CYO, whole UniProt chain shown; for ddG of mutation (higher = less stable): 67.2 °C.

As for V66K, the “ddG of mutation (higher = less stable)” value is 2.34 kcal/mol; the Tm stood at 58.5 °C; the “change of melting temperature, mutant - wild type (higher = more stable)” value (from here on “change of melting temperature, mutant”) was -8.7 °C; the “unfolding enthalpy (van 't Hoff)” value came out at 87 kcal/mol.

As to V66E, the “ddG of mutation (higher = less stable)” value is 1.1 kcal/mol; the Tm was 63.2 °C; the “change of melting temperature, mutant” value is -4 °C; the “unfolding enthalpy (van 't Hoff)” value is 93.2 kcal/mol.

As to V66Y, the “ddG of mutation (higher = less stable)” value amounted to 1.29 kcal/mol; the Tm was 62.5 °C; the “change of melting temperature, mutant” value is -4.7 °C; the “unfolding enthalpy (van 't Hoff)” value came out at 91.3 kcal/mol.

As for V66H, the “ddG of mutation (higher = less stable)” value amounted to 1.63 kcal/mol; the Tm is 61.3 °C; the “change of melting temperature, mutant” value is -5.9 °C; the “unfolding enthalpy (van 't Hoff)” value amounted to 88.2 kcal/mol.
